{
  "source": "paper PMC3340011",
  "about": "(Biophysical Chemistry, 2011)",
  "assay_in_all_cases": "fluorescence polarisation",
  "key": {"[1]": {"molecular_target": "C-domain fragment of calmodulin, residues 76–148 (rat, UniProt P0DP29 77-149)"}, "[2]": {"molecular_target": "T1, Full-length mammalian calmodulin, residues 1–148 (rat) (rat, UniProt P0DP29 1-149)"}, "[3]": {"molecular_target": "N-domain fragment of calmodulin, residues 1–80 (rat, UniProt P0DP29 2-81)"}, "[4]": {"molecular_target": "T1, Full-length mammalian calmodulin, …", "remark": "listed apart in the source"}},
  "note": "Read-outs that look alike come from different tables or passages of the source. Where no end group is shown, it is not given here.",
  "data": [
    {"binder": "{5,6‑carboxyfluorescein}-ELRAIIKKIWKRTSMKLLDQVV", "note": "[Fl-C_(1614): C_(1614) (residues 1614–1635 of Cav1.2 CTT) fluoresceinated at the N-terminus]", "values": [
      {"measurement": "Kd", "setting": "[1]", "value": "≤ 70", "unit": "nM"},
      {"measurement": "Kd", "setting": "[2]", "value": "≤ 2", "unit": "nM"},
      {"measurement": "Kd", "setting": "[3]", "value": "≤ 70", "unit": "nM"},
      {"measurement": "Kd", "setting": "[4]", "value": "4100 ± 370", "unit": "nM"}
    ]},
    {"binder": "{5,6‑carboxyfluorescein}-FNATLFALVRTALRIKTEGNLE", "note": "[Fl-A_(1588): A_(1588) (residues 1588–1609 of Cav1.2 CTT) fluoresceinated at the N-terminus]", "values": [
      {"measurement": "Kd", "setting": "[2]", "value": "≤ 2", "unit": "nM"}
    ]},
    {"binder": "{5,6‑carboxyfluorescein}-ATFLIQEYFRKFKKRKEQGLVGKPSQ", "note": "[Fl-IQ′_(1650): IQ′_(1650) (residues 1650–1675 of Cav1.2 CTT) fluoresceinated at the N-terminus]", "values": [
      {"measurement": "Kd", "setting": "[1]", "value": "≤ 10", "unit": "nM"},
      {"measurement": "Kd", "setting": "[2]", "value": "≤ 2", "unit": "nM"},
      {"measurement": "Kd", "setting": "[3]", "value": "1100 ± 970", "unit": "nM"},
      {"measurement": "Kd", "setting": "[4]", "value": "2500 ± 180", "unit": "nM"}
    ]}
  ]
}
